Target: T1, CasEnd-22 (synthetic construct)
T1 chain: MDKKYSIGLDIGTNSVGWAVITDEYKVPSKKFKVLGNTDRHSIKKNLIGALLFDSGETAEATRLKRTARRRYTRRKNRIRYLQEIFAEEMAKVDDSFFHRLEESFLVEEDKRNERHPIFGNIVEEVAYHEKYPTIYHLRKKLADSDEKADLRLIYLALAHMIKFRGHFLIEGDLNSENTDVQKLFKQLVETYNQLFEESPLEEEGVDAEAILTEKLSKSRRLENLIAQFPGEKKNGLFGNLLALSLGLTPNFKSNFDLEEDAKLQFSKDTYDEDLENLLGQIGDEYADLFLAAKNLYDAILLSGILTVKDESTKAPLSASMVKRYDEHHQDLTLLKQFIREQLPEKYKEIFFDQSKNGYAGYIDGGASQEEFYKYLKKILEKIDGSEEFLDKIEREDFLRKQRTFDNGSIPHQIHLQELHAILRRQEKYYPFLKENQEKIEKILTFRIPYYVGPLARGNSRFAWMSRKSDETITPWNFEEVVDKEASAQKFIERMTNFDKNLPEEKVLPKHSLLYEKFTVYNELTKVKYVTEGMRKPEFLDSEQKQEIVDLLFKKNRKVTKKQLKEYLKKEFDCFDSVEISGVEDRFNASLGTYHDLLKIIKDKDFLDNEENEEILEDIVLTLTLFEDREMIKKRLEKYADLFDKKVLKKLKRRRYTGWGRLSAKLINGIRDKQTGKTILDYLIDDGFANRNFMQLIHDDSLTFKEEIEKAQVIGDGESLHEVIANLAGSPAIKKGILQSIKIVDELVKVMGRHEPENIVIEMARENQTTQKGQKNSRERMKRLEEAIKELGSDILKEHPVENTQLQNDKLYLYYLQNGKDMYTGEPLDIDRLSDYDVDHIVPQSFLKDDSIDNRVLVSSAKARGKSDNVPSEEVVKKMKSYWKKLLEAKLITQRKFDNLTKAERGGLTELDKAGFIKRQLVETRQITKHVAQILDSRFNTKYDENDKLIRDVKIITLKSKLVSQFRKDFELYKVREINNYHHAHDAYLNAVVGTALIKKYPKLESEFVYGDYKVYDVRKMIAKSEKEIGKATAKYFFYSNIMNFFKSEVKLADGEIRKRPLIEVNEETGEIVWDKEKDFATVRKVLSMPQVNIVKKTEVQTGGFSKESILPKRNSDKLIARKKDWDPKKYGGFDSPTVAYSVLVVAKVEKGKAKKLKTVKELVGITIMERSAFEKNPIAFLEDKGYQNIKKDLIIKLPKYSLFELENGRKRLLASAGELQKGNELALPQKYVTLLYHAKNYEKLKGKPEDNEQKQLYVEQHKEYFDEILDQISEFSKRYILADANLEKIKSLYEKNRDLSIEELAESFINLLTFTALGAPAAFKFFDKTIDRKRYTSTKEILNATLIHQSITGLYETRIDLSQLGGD
Test: cell_activity; +++; K562, second nick guide SEQ 380; PAM not stated
Experimental: The ability of the candidate endonucleases, including endonucleases 1-38 (CasEnds 1-38) (set forth in Table 1 and SEQ ID NOS: 1-38, respectively), to mediate target nucleic acid editing in cells was assessed by amplicon sequencing of the endogenous hemoglobin subunit beta (eHBB) gene, wherein the percent of amplicons displaying the intended edit is measured. The editing system is comprised of a template RNA (designed to introduce the Single Nucleotide Polymorphism), a second nick guide RNA, and a fusion protein consisting of retroviral reverse transcriptase and the individual subject Cas endonuclease.
Briefly, 250 ng of plasmid DNA encoding the subject fusion protein (containing one of the subject CasEnds), 250 ng each of plasmid DNA encoding the template RNA and the second nick guide RNA were added to 15 μL Lonza SF buffer containing 250,000 K562 cells. Nucleofection was mediated utilizing program FF-120-DA on a Lonza nucleofector. The day of nucleofection was marked as day 0. At day 3, the cells were harvested and subjected to lysis buffer treatment overnight. Genomic DNA was extracted and used for targeted amplicon sequencing to evaluate the performance of each Cas endonucleases based on their percent edit efficiencies.

B1: HBB template RNA ; HBB protospacer (ssRNA ; dsDNA)
RNA: CAUGGUGCACCUGACUCCUGGUUUUAGAGCUAGAAAUAGCAAGUUAAAAUAAGGCUAGUCCGUUAUCAACUUGAAAAAGUGGCACCGAGUCGGUGCACGGCAGACUUCUCUGCCGGAGUCAGGUGC
DNA 1: CATGGTGCACCTGACTCCTG
DNA 2: CAGGAGTCAGGTGCACCATG
activity: ≥ 100 % of reference
